Source: PMC2289705

Molecular target: vimentin 2.tag (epitope-tagged Xenopus laevis vimentin 2, 57 kD) (X. laevis)
Assay: fractionation of oocytes into soluble and insoluble fractions

stoichiometry N: 4
Substance: vimentin 2.tag (epitope-tagged Xenopus laevis vimentin 2, 57 kD) (natural protein)
